The source of these data is publication PMC8795186, “Structural basis for safe and efficient energy conversion in a respiratory supercomplex” (Nature Communications, 2022).

Sequences and labels used below:
B1: QcrB, cytochrome b subunit of the cyt bcc complex (natural protein, Corynebacterium glutamicum, UniProt Q79VE9 1-539, looked up)
chain: MSLATVGNNLDSRYTMASGIRRQINKVFPTHWSFMLGEIALYSFIVLLLTGVYLTLFFDPSITKVIYDGGYLPLNGVEMSRAYATALDISFEVRGGLFIRQMHHWAALLFVVSMLVHMLRIFFTGAFRRPREANWIIGVVLIILGMAEGFMGYSLPDDLLSGVGLRIMSAIIVGLPIIGTWMHWLIFGGDFPSDLMLDRFYIAHVLIIPAILLGLIAAHLALVWYQKHTQFPGAGRTENNVIGIRIMPLFAVKAVAFGLIVFGFLALLAGVTTINAIWNLGPYNPSQVSAGSQPDVYMLWTDGAARVMPAWELYLGNYTIPAVFWVAVMLGILVVLLVTYPFIERKFTGDDAHHNLLQRPRDVPVRTSLGVMALVFYILLTVSGGNDVYAMQFHVSLNAMTWIGRIGLIVGPAIAYFITYRLCIGLQRSDREVLEHGIETGIIKQMPNGAFIEVHQPLGPVDDHGHPIPLPYAGAAVPKQMNQLGYAEVETRGGFFGPDPEDIRAKAKEIEHANHIEEANTLRALNEANIERDKNEGKN
notes: QcrB, cytochrome b subunit (haem bL, haem bH) of the cytochrome bcc complex, Corynebacterium glutamicum; has a 102 residue C-terminal extension; source: endogenous, purified from C. glutamicum membranes as part of the supercomplex (DDM, DEAE Sepharose, size exclusion)

Data set [1] has as its target T1, cyt bcc-aa3 (III2-IV2) supercomplex; QcrB sites (Corynebacterium glutamicum, UniProt Q79VE9).
T1 construct: native supercomplex purified from C. glutamicum membranes in DDM; dimer of 13-subunit protomers; with Cytochrome bc1 complex Rieske iron-sulfur subunit; Cytochrome bc1 complex cytochrome c subunit; Cytochrome c oxidase subunit 1; Cytochrome c oxidase subunit 2; Cytochrome c oxidase subunit 3; Cytochrome c oxidase polypeptide 4; Supercomplex subunit P29; Supercomplex subunit P20; Supercomplex subunit P12; Supercomplex subunit P8; Supercomplex subunit P6; ThiX
T1 sequence (Q79VE9 1-539): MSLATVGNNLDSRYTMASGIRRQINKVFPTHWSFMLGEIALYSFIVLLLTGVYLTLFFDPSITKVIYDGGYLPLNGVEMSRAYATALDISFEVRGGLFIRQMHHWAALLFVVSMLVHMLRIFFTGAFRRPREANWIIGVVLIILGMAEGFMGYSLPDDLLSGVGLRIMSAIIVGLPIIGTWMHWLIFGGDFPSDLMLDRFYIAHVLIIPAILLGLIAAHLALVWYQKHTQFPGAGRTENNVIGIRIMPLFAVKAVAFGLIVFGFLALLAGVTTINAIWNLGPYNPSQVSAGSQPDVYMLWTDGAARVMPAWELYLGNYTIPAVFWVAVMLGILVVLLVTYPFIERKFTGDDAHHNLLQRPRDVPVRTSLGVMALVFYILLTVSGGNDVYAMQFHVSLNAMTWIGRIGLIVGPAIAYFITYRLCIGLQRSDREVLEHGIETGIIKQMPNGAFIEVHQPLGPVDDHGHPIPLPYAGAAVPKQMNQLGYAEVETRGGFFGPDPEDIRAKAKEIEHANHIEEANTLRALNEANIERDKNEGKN
The experiment in a line: cryo-EM structure; absorption spectroscopy. The data set is classed as binding. Particulars: co-purified endogenous pigment; narrow tunnel of QcrB near Qo site.

For data set [2], the target named is T2, cyt bcc-aa3 (III2-IV2) supercomplex; quinone sites of the cyt bcc complex (QcrB/QcrA) (Corynebacterium glutamicum, UniProt Q79VE8+Q79VE9).
T2 construct: native supercomplex purified from C. glutamicum membranes in DDM; dimer of 13-subunit protomers; with Cytochrome bc1 complex cytochrome c subunit; Cytochrome c oxidase subunit 1; Cytochrome c oxidase subunit 2; Cytochrome c oxidase subunit 3; Cytochrome c oxidase polypeptide 4; Supercomplex subunit P29; Supercomplex subunit P20; Supercomplex subunit P12; Supercomplex subunit P8; Supercomplex subunit P6; ThiX
T2 sequence (Q79VE9 1-539): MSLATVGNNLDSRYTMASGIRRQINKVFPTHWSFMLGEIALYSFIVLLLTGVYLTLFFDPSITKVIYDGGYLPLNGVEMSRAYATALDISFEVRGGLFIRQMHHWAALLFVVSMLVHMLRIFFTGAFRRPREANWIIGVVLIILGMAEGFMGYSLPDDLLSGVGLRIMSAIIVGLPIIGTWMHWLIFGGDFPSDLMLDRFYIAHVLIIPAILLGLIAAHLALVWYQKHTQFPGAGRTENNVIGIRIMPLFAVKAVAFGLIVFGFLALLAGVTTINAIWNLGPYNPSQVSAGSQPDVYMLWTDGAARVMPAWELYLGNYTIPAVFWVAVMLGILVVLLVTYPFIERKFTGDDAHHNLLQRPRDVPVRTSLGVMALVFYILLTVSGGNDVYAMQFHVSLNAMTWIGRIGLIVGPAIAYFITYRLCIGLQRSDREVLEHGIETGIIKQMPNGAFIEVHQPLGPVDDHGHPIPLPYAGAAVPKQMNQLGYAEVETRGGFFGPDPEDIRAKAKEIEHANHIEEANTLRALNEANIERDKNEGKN
T2 sequence (Q79VE8 1-408): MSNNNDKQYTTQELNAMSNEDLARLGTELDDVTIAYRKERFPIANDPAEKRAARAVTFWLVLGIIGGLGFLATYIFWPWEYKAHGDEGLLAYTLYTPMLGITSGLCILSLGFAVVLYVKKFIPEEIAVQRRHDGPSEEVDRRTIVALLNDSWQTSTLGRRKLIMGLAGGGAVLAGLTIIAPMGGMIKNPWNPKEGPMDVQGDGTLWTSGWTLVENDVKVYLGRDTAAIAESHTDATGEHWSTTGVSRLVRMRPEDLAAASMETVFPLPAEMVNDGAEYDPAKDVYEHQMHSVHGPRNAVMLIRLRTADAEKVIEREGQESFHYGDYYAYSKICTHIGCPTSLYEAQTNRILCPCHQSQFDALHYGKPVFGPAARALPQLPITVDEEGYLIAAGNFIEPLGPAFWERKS
The experiment in a line: cryo-EM structure, […] Å. It counts as binding. As to conditions: 20 µM stigmatellin, 2.5 mM azide also present; Qo site, transition-state analogue; QcrB and His355 of QcrA.

Data set [3] deals with T3, CtaD, subunit of the cyt aa3 oxidase (haem a, haem a3, CuB) (Corynebacterium glutamicum, UniProt Q79VD7 1-584, His265 covalently bound to Tyr269).
T3 construct: CtaD, catalytic subunit (haem a, haem a3, CuB) of the cytochrome aa3 oxidase, Corynebacterium glutamicum; source: endogenous, purified from C. glutamicum membranes as part of the supercomplex (DDM, DEAE Sepharose, size exclusion)
T3 sequence (looked up): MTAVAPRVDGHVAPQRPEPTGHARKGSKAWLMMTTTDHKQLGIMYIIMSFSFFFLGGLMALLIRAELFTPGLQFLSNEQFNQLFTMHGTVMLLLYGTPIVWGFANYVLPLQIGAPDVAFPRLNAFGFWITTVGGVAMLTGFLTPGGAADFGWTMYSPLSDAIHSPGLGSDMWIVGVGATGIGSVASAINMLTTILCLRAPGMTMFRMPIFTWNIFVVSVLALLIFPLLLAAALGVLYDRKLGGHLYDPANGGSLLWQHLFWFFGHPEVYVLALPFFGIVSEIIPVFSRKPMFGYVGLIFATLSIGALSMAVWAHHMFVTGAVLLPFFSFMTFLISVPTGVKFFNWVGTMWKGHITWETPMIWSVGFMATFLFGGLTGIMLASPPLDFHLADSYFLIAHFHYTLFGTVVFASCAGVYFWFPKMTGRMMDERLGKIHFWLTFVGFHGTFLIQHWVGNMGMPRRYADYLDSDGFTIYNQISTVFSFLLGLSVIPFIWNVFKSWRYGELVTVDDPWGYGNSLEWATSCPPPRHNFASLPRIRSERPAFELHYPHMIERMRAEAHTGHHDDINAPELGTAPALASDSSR
The experiment in a line: cryo-EM structure; supercomplex purified from C. glutamicum membranes in DDM, 10 mg/ml; with 20 µM stigmatellin and 2.5 mM sodium azide (2.8 Å) and as isolated (3.1 Å). Particulars: both partners purified.

Data set [4] has as its target B1. The data set is described as above. As to conditions: both partners purified.
Data set [5] deals with the molecule itself. The description is as above.

As for `CC(C)=CCC/C(C)=C/C=C/C(C)=C/C=C/C(C)=C/C=C/C=C(C)/C=C/C=C(C)/C=C/C=C(\C)CCC=C(C)C` [lycopene], the “cryo-EM structure; absorption spectroscopy” value in data set [1] is given as “a lycopene molecule is resolved in a narrow tunnel of QcrB”.

For `C/C=C(C)/C=C/C=C/[C@H](OC)[C@@H](C)[C@@H](OC)[C@@H](C)CCc1oc2c(O)c(OC)cc(OC)c2c(=O)c1C` [stigmatellin], the “cryo-EM structure, 2.8 Å” value in data set [2] was “The cryo-EM map clearly resolves stigmatellin bound between FeS and haem bL”.

With B1, the binding result in data set [3] is listed as “binds”.

B2: CtaF, subunit of the cyt aa3 oxidase (natural protein, Corynebacterium glutamicum, UniProt Q8NNK3 1-143, looked up)
chain: MKSSAKLMYGPTVFMAAMAVIYIFATMHVSDGGSVKGVEWVGSVALVLSAGLTLMLGVYLHFTEVRVDVLPEDWEEAEVADKAGTLGFFSPSSIWPAAMSGAVGFLAFGVVYFHYWMIAVGLMLLIFTITKLNLQYGVPKEKH
notes: CtaF, subunit of the cytochrome aa3 oxidase, Corynebacterium glutamicum; source: endogenous, purified from C. glutamicum membranes as part of the supercomplex (DDM, DEAE Sepharose, size exclusion)
On to B2, for which the binding result in data set [4] was “binds”.

B3: QcrA, Rieske-type iron-sulfur subunit of the cyt bcc complex (natural protein, Corynebacterium glutamicum, UniProt Q79VE8 1-408, looked up)
chain: MSNNNDKQYTTQELNAMSNEDLARLGTELDDVTIAYRKERFPIANDPAEKRAARAVTFWLVLGIIGGLGFLATYIFWPWEYKAHGDEGLLAYTLYTPMLGITSGLCILSLGFAVVLYVKKFIPEEIAVQRRHDGPSEEVDRRTIVALLNDSWQTSTLGRRKLIMGLAGGGAVLAGLTIIAPMGGMIKNPWNPKEGPMDVQGDGTLWTSGWTLVENDVKVYLGRDTAAIAESHTDATGEHWSTTGVSRLVRMRPEDLAAASMETVFPLPAEMVNDGAEYDPAKDVYEHQMHSVHGPRNAVMLIRLRTADAEKVIEREGQESFHYGDYYAYSKICTHIGCPTSLYEAQTNRILCPCHQSQFDALHYGKPVFGPAARALPQLPITVDEEGYLIAAGNFIEPLGPAFWERKS
notes: QcrA, Rieske-type iron-sulfur (2Fe-2S) subunit of the cytochrome bcc complex, Corynebacterium glutamicum; Carries the 2Fe-2S cluster (ligands His335, His355); QcrA crosses the dimer; also called QcrA´ (the copy of the second protomer); Rieske homologous subunit; source: endogenous, purified from C. glutamicum membranes as part of the supercomplex (DDM, DEAE Sepharose, size exclusion)
For B3, the binding result in data set [5] and in data set [4] was “binds” each time.

B4: CtaE, subunit of the cyt aa3 oxidase (natural protein, Corynebacterium glutamicum, UniProt Q9AEL8 1-205, looked up)
chain: MTSAVGNTGMAAPQRVAALNRPNMVSVGTIVFLSQELMFFAGLFAMYFVSRANGLANGSWGEQTDHLNVPYALLITVILVSSSVTCQFGVFAAERGDVYGLRKWFLVTIILGSIFVIGQGYEYITLVGHGLTIQSSVYGSAFFITTGFHALHVIAGVMAFVVVLMRIHKSKFTPAQATAAMVVSYYWHFVDVVWIGLFITIYFIQ
notes: CtaE, subunit of the cytochrome aa3 oxidase, Corynebacterium glutamicum; source: endogenous, purified from C. glutamicum membranes as part of the supercomplex (DDM, DEAE Sepharose, size exclusion)
Consider B4, for which the binding result in data set [4] is recorded as “binds”.
